Test results taken from the supplement of paper PMC7125110.
± gives the standard error. For some assays here: This sample holds only a part of the variants without activity.

B1: glmS ribozyme (parent)
chain: AUAAAAGCGCCAGAACUACAGAAAUGUAGUUGACGAGGAGGAGGUUUAUCGAAUUUUCGGCGGAUGCCUCCAAA

Experiments:
Settings in all cases: with glucosamine-6-phosphate
glucosamine-6-phosphate [1] = variants of: B1; experiment: kcat; higher = faster cleavage; RNA array
In short: (§1)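 Barcoded ribozyme variants were transcribed in situ on sequenced MiSeq chips by E. coli RNA polymerase. At 37 °C, a hybridised Cy3 probe tracked them while glucosamine-6-phosphate (40 μM to 10 mM) in HEPES/KCl/Mg(OAc)2 buffer flowed in and tiles were imaged over ~14 h. Per-tile medians of signals normalised to baseline and to non-cleaving reference variants were fit to one- or two-exponential decays, giving kobs. kcat and KM came from weighted Michaelis–Menten fits across concentrations.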

glucosamine-6-phosphate [2] = variants of: B1; experiment: self-cleavage kobs at 40 uM GlcN6P; higher = faster cleavage; RNA array
In short: as §1

glucosamine-6-phosphate [3] = variants of: B1; experiment: self-cleavage kobs at 160 uM GlcN6P; higher = faster cleavage; RNA array
In short: as §1

glucosamine-6-phosphate [4] = variants of: B1; experiment: self-cleavage kobs at 10000 uM GlcN6P; higher = faster cleavage; RNA array
In short: as §1

glucosamine-6-phosphate [5] = variants of: B1; experiment: KM; higher = weaker cofactor use; RNA array
In short: as §1

glucosamine-6-phosphate [6] = variants of: B1; experiment: self-cleavage kobs at 640 uM GlcN6P; higher = faster cleavage; RNA array
In short: as §1

glucosamine-6-phosphate [7] = variants of: B1; experiment: self-cleavage kobs at 2500 uM GlcN6P; higher = faster cleavage; RNA array
In short: as §1

| Variant | kcat (glucosamine-6-phosphate [1]) [s⁻¹] | self-cleavage kobs at 40 uM GlcN6P (glucosamine-6-phosphate [2]) [s⁻¹] | self-cleavage kobs at 160 uM GlcN6P (glucosamine-6-phosphate [3]) [s⁻¹] | self-cleavage kobs at 10000 uM GlcN6P (glucosamine-6-phosphate [4]) [s⁻¹] | KM (glucosamine-6-phosphate [5]) [µM] | self-cleavage kobs at 640 uM GlcN6P (glucosamine-6-phosphate [6]) [s⁻¹] | self-cleavage kobs at 2500 uM GlcN6P (glucosamine-6-phosphate [7]) [s⁻¹] |
| --- | --- | --- | --- | --- | --- | --- | --- |
| A48U U57G | < 1e-05 | < 1e-05 | < 1e-05 | < 1e-05 | – | – | – |
| A53C C58U | 3.83e-05 ± 9.3e-06 | < 1e-05 | < 1e-05 | – | – | – | – |
| G41U U55C | 0.000532 ± 8.1e-05 | – | 3.13e-05 ± 1.4e-05 | 0.000359 ± 5.4e-05 | 4870 ± 1100 | 6.02e-05 ± 7.7e-06 | 0.000181 ± 2e-05 |
| G37A U47G U55G | 0.000459 ± 0.00013 | – | – | 0.000412 ± 6.3e-05 | – | 0.000101 ± 1.6e-05 | 0.000183 ± 2.9e-05 |
| G13U A42G U45A | 0.00154 ± 0.00051 | – | – | 0.00104 ± 0.00021 | – | 0.000169 ± 6.2e-05 | 0.000951 ± 0.00031 |
| C58U C71U | 8.62e-05 ± 5e-06 | – | – | 6.56e-05 ± 6e-06 | 3200 ± 560 | – | 3.66e-05 ± 7.1e-06 |
| G41C C68U | < 1e-05 | < 1e-05 | – | – | – | < 1e-05 | – |
| G41U C58A | 1.21e-05 ± 4e-06 | – | – | – | – | – | – |
| U31A U56C | 0.00331 ± 0.0008 | 6.48e-05 ± 1.3e-05 | 0.000186 ± 4.2e-05 | 0.00299 ± 0.00037 | 2630 ± 990 | 0.00066 ± 0.00012 | 0.00115 ± 0.00025 |
| A15U | 0.0104 ± 0.0019 | 0.000227 ± 4e-06 | 0.00061 ± 2.2e-05 | 0.00847 ± 0.00024 | 1950 ± 440 | 0.00245 ± 8.9e-05 | 0.00682 ± 0.00026 |
| A14G G59U | 0.000386 ± 9.6e-05 | – | – | 0.000196 ± 2.2e-05 | 9330 ± 3800 | 1.71e-05 ± 8e-06 | 9.37e-05 ± 1.5e-05 |
| C10U A12C | 5.93e-05 ± 3.7e-06 | – | – | 4.39e-05 ± 8.1e-06 | 3450 ± 580 | – | 2.54e-05 ± 8e-06 |
| U30C U54C | 0.000253 ± 0.00011 | – | 4.17e-05 ± 1.8e-05 | 0.000271 ± 4.1e-05 | – | 7.76e-05 ± 1.2e-05 | 9.4e-05 ± 2.7e-05 |
| G13U U54A | 0.00184 ± 0.00033 | 4.3e-05 ± 9.5e-06 | 0.000103 ± 1.6e-05 | 0.00144 ± 0.00015 | 2690 ± 770 | 0.000283 ± 5.5e-05 | 0.00105 ± 0.00017 |
| C11U A53U | 0.00137 ± 0.0004 | – | 0.000141 ± 3.8e-05 | 0.00125 ± 0.00023 | – | – | 0.000587 ± 0.00017 |
| A36U U69A | 4.58e-05 ± 1.6e-05 | 5.11e-05 ± 1.6e-05 | – | – | – | – | 7.35e-05 ± 2.7e-05 |
| G40U U46C | 0.00175 ± 0.00024 | 4.23e-05 ± 1.1e-05 | 9.14e-05 ± 1.9e-05 | 0.00137 ± 0.00016 | 2420 ± 530 | 0.000365 ± 5e-05 | 0.000971 ± 0.00014 |

| Variant | kcat (glucosamine-6-phosphate [1]) [s⁻¹] | self-cleavage kobs at 40 uM GlcN6P (glucosamine-6-phosphate [2]) [s⁻¹] | self-cleavage kobs at 160 uM GlcN6P (glucosamine-6-phosphate [3]) [s⁻¹] | self-cleavage kobs at 10000 uM GlcN6P (glucosamine-6-phosphate [4]) [s⁻¹] | KM (glucosamine-6-phosphate [5]) [µM] | self-cleavage kobs at 640 uM GlcN6P (glucosamine-6-phosphate [6]) [s⁻¹] | self-cleavage kobs at 2500 uM GlcN6P (glucosamine-6-phosphate [7]) [s⁻¹] |
| --- | --- | --- | --- | --- | --- | --- | --- |
| U65G C68A | 6.34e-05 ± 1e-06 | – | – | 6.04e-05 ± 9.2e-06 | 501 ± 50 | – | 5.3e-05 ± 1.2e-05 |
| U69G C70A | 4.72e-05 ± 1.5e-05 | – | 4.55e-05 ± 1.3e-05 | – | – | 5.13e-05 ± 9.1e-06 | 7.85e-05 ± 1.2e-05 |
| A39U G60A | 2.79e-05 ± 2e-06 | – | < 1e-05 | – | 5820 ± 1100 | – | – |
| A14G U46C | 0.0067 ± 0.0025 | 0.000504 ± 0.00011 | – | 0.00545 ± 0.002 | – | 0.00207 ± 0.00084 | 0.00744 ± 0.0013 |
| C58G C71U | 7.95e-05 ± 3.4e-06 | – | – | 7.36e-05 ± 9e-06 | 402 ± 99 | 4.63e-05 ± 1.1e-05 | 7.26e-05 ± 8.7e-06 |
| A15C C67G | 0.0001315 ± 6.7e-07 | – | – | 0.000114 ± 1.8e-05 | 1530 ± 22 | 3.9e-05 ± 1.4e-05 | 8.12e-05 ± 1.4e-05 |
| A52G C68G | 5.61e-05 ± 9.7e-06 | – | – | 4.28e-05 ± 8.7e-06 | – | 6.55e-05 ± 1.4e-05 | 7.16e-05 ± 1.2e-05 |
| C10A U54A | < 1e-05 | < 1e-05 | – | – | – | – | – |
| U30G C67A C70U | 0.000403 ± 2.7e-05 | – | – | 0.000369 ± 8.4e-05 | 353 ± 78 | 0.00027 ± 6.3e-05 | 0.000399 ± 0.00014 |
| A12C U46C | 0.00298 ± 0.0008 | 7.98e-05 ± 1.5e-05 | 0.000265 ± 5.1e-05 | 0.0026 ± 0.00058 | 1680 ± 590 | 0.000606 ± 0.00017 | 0.00273 ± 0.00089 |
| U47G C68A | 6.42e-05 ± 2.2e-05 | – | 4.97e-05 ± 2e-05 | 3.58e-05 ± 1.2e-05 | – | 0.000121 ± 2.4e-05 | 9.07e-05 ± 1.6e-05 |
| A39G C70U C71U | 0.000401 ± 9.5e-05 | 0.000107 ± 2.7e-05 | 0.000403 ± 0.00018 | 0.000785 ± 0.00024 | – | 0.000383 ± 8.4e-05 | 0.000283 ± 8.9e-05 |
| A14C C16A | 6.62e-05 ± 7.2e-06 | – | – | 5.95e-05 ± 6.9e-06 | – | 2.75e-05 ± 1.3e-05 | 6.73e-05 ± 1.1e-05 |
| C50G U54G | 4.74e-05 ± 1.5e-05 | – | 7.22e-05 ± 1.2e-05 | – | – | 4.18e-05 ± 1.1e-05 | 3.85e-05 ± 1.5e-05 |
| G29U G59C | < 1e-05 | < 1e-05 | – | < 1e-05 | – | – | < 1e-05 |
| U45A C67A C68G | 1.46e-05 ± 7.2e-06 | – | – | – | – | – | – |
